Measurements taken from patent publication US9260500B2, “Peptide and use thereof” (Takeda Pharmaceutical Company Limited, priority 2009, dated 2016).
Non-standard residues stand in square brackets, D forms with d. *: point of attachment. X1 = ((1S)-1-carboxy-2-(4-hydroxyphenyl)ethyl)carbamoyl, O=C(O)[C@H](Cc1ccc(O)cc1)NC(=O)*; X3 = ((1S)-1-Carboxy-2-hydroxyethyl)carbamoyl, O=C(O)[C@H](CO)NC(=O)*; X8 = (2-Hydroxy-1-(hydroxymethyl)ethyl)carbamoyl, O=C(NC(CO)CO)*; X5 = tetrahydro‑2H‑pyran‑4‑yl‑carbamoyl, O=C(NC1CCOCC1)*; morpholinocarbonyl = O=C(N1CCOCC1)*; 4Pal = N[C@@H](Cc1ccncc1)C(=O)O; Cha = N[C@@H](CC1CCCCC1)C(=O)O; Iva = CC[C@](C)(N)C(=O)O; Aib = CC(C)(N)C(=O)O

Legend:
[1] = molecular target: T1, human Y2 receptor (Homo sapiens, UniProt P49146); assay: Receptor Binding Assay (RBA) for Human Y2, [125I]-PYY displacement on hY2R/CHO membrane fraction; settings: IC50 of test compound/IC50 of PYY(3-36) (PYY(3-36) taken as 1)
T1 construct: expressed in transfected cells; membrane fraction
T1 sequence (P49146 1-381): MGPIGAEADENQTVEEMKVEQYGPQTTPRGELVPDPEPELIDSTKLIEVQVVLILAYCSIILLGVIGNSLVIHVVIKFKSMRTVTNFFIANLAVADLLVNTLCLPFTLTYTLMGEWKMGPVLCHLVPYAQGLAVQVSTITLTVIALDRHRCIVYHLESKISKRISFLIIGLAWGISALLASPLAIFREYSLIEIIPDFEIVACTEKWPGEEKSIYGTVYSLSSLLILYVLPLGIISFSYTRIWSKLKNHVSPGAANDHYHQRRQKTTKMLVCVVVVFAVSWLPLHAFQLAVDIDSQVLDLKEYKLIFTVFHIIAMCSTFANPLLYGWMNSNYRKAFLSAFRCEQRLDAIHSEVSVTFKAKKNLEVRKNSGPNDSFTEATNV
Method in brief: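 hY2R stably expressed in CHO/dhfr− cells; membrane fraction prepared from cells disrupted in 10 mM NaHCO3, 5 mM EDTA buffer with protease inhibitors. Binding read as displacement of [125I]-PYY.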

[2] = molecular target: T1, human Y2 receptor; assay: Human Y2 Receptor G Protein Binding Assay (GBA), [35S]GTPγS; assay type: biochemical; settings: EC50 of test compound/EC50 of PYY(3-36) (PYY3-36 taken as 1), hY2R/CHO membrane fraction
Method in brief: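 Agonism measured as [35S]GTPγS binding, read by GF/C filtration and scintillation counting after 120 min at room temperature, using human Y2 membranes at 1 μg protein/mL in pH 7.4 Tris/MgCl2/NaCl/GDP buffer. Compound serially diluted 100 μM–1 nM; EC50 normalized to PYY(3-36) (ratio = compound/PYY).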

[3] = system: male C57EL/6J mice; assay: 3-Days Continuous Subcutaneous Administration Test-1 (food intake suppressing activity); assay type: in vivo, mouse; settings: 0.03 mg/kg/day, subcutaneous Alzet pump, food consumption over 3 days; relative to food intake suppression rate for PYY(3-36) (1 mg/kg/day) taken as 100%
Method in brief: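 Male […] mice, 12-13 weeks, received compound at 0.03 mg/kg/day by subcutaneous osmotic pump (50% DMSO vehicle), housed singly with free food access. Food consumed over 3 days measured; suppression expressed relative to PYY(3-36) (1 mg/kg/day) set as 100%.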

Row | Substance | RBA IC50 Ratio [1] | GBA EC50 Ratio [2] | food intake suppression rate (%) [3] [%]
1 | Morpholinocarbonyl-[D-Pro24, Pya(4)26, Cha27,36, Aib28,31, Lys30]-PYY(23-36) (morpholinocarbonyl-S[dP]R[4Pal][Cha][Aib]NK[Aib]TRQR[Cha]-NH2; SMILES C[C@@H](O)[C@H](NC(=O)C(C)(C)NC(=O)[C@H](CCCCN)NC(=O)[C@H](CC(N)=O)NC(=O)C(C)(C)NC(=O)[C@H](CC1CCCCC1)NC(=O)[C@H](Cc1ccncc1)NC(=O)[C@H](CCCNC(=N)N)NC(=O)[C@H]1CCCN1C(=O)[C@H](CO)NC(=O)N1CCOCC1)C(=O)N[C@@H](CCCNC(=N)N)C(=O)N[C@@H](CCC(N)=O)C(=O)N[C@@H](CCCNC(=N)N)C(=O)N[C@@H](CC1CCCCC1)C(N)=O) [compound No. 268] | 0.89 | 0.57 | 16
2 | Tetrahydro-2H-pyran-4-yl-carbamoyl-[D-Pro24, Pya(4)26, Cha27,36, Aib28,31, Lys30]-PYY(23-36) (X5-S[dP]R[4Pal][Cha][Aib]NK[Aib]TRQR[Cha]-NH2; ends and bridges not checked) [compound No. 270] | 0.52 | 0.61 | 28
3 | Tetrahydro-2H-pyran-4-yl-carbamoyl-[Glu23, D-Pro24, Pya(4)26, Cha27,36, Aib28,31, Lys30]-PYY(23-36) (X5-E[dP]R[4Pal][Cha][Aib]NK[Aib]TRQR[Cha]-NH2; ends and bridges not checked) [compound No. 282] | 1.1 | 1.6 | 30
4 | [2-Hydroxy-1-(hydroxymethyl)ethyl]carbamoyl-[D-Pro24, Iva25, Pya(4)26, Cha27,36, Aib28,31, Lys30]-PYY(23-36) (X8-S[dP][Iva][4Pal][Cha][Aib]NK[Aib]TRQR[Cha]-NH2; SMILES CC[C@](C)(NC(=O)[C@H]1CCCN1C(=O)[C@H](CO)NC(=O)NC(CO)CO)C(=O)N[C@@H](Cc1ccncc1)C(=O)N[C@@H](CC1CCCCC1)C(=O)NC(C)(C)C(=O)N[C@@H](CC(N)=O)C(=O)N[C@@H](CCCCN)C(=O)NC(C)(C)C(=O)N[C@H](C(=O)N[C@@H](CCCNC(=N)N)C(=O)N[C@@H](CCC(N)=O)C(=O)N[C@@H](CCCNC(=N)N)C(=O)N[C@@H](CC1CCCCC1)C(N)=O)[C@@H](C)O) [compound No. 339] | 1.76 | 2.0 | 51
5 | [(1S)-1-Carboxy-2-(4-hydroxyphenyl)ethyl]carbamoyl-[D-Pro24, Pya(4)26, Cha27,36, Aib28,31, Lys30]-PYY(23-36) (X1-S[dP]R[4Pal][Cha][Aib]NK[Aib]TRQR[Cha]-NH2; SMILES C[C@@H](O)[C@H](NC(=O)C(C)(C)NC(=O)[C@H](CCCCN)NC(=O)[C@H](CC(N)=O)NC(=O)C(C)(C)NC(=O)[C@H](CC1CCCCC1)NC(=O)[C@H](Cc1ccncc1)NC(=O)[C@H](CCCNC(=N)N)NC(=O)[C@H]1CCCN1C(=O)[C@H](CO)NC(=O)N[C@@H](Cc1ccc(O)cc1)C(=O)O)C(=O)N[C@@H](CCCNC(=N)N)C(=O)N[C@@H](CCC(N)=O)C(=O)N[C@@H](CCCNC(=N)N)C(=O)N[C@@H](CC1CCCCC1)C(N)=O) [compound No. 285] | 0.95 | 1.2 | 28
6 | [(1S)-1-Carboxy-2-hydroxyethyl]carbamoyl-[D-Pro24, Iva25, Pya(4)26, Cha27,36, Aib28,31, Lys30]-PYY(23-36) (X3-S[dP][Iva][4Pal][Cha][Aib]NK[Aib]TRQR[Cha]-NH2; SMILES CC[C@](C)(NC(=O)[C@H]1CCCN1C(=O)[C@H](CO)NC(=O)N[C@@H](CO)C(=O)O)C(=O)N[C@@H](Cc1ccncc1)C(=O)N[C@@H](CC1CCCCC1)C(=O)NC(C)(C)C(=O)N[C@@H](CC(N)=O)C(=O)N[C@@H](CCCCN)C(=O)NC(C)(C)C(=O)N[C@H](C(=O)N[C@@H](CCCNC(=N)N)C(=O)N[C@@H](CCC(N)=O)C(=O)N[C@@H](CCCNC(=N)N)C(=O)N[C@@H](CC1CCCCC1)C(N)=O)[C@@H](C)O) [compound No. 332] | 3.5 | 3.0 | 32
